Measured values taken from publication PMC6319338, “Insight into the PTEN – p85α interaction and lipid binding properties of the p85α BH domain” (Oncotarget, 2018).

Target: T1, purified p85α wild type (cleaved from GST) (bovine, UniProt P23727 1-724)
T1 construct: p85α (PI3K regulatory subunit alpha), bovine, residues 1-724; also called wild type p85α; source: E. coli, expressed as GST fusion, cleaved from GST, purified; not shown: GST, N-terminal, cleaved
Experiment: pull-down; GST-PTEN (wild type or mutant; 5 μg) immobilized on glutathione Sepharose beads; precleared purified p85α cleaved from GST (5 μg in 1% milk, 500 μl PBS pH 7.3); 30 minutes at room temperature; 5 washes; anti-p85α immunoblot, quantified with Odyssey software
Conditions: both partners purified

B1: GST-PTEN wild type (1–403) (natural protein)
chain: not shown
notes: PTEN, human, residues 1-403 (74 kDa as GST fusion); vector pGEX6P1; The activity assay used His6-PTEN instead; also called wild type PTEN; source: E. coli, GST fusion immobilized on glutathione Sepharose beads
- binding result: binds
